Test results as given in patent publication US20220135684A1 (Xencor, published 2022).

Key:
human CD28 = target: T1, human CD28 (human, UniProt P10747 19-152); assay: Octet (BLI), scFv arm in the bsAb; value told in the text
T1 construct: also called Cluster of Differentiation 28; Tp44

human PDL1 antigen = target: T2, human PDL1 antigen (human, UniProt Q9NZQ7 19-238); assay: Biacore (SPR), Fab arm in a bsAb; value told in the text
T2 construct: they are put here

Row | Kd (human CD28) [nM] | Kd (human PDL1 antigen) [nM] | Binder
1 | – | 0.8 | αPDL1×αCD28 bsAb with PDL1 binding domain 2G4_H1.12_L1.68 and CD28 binding domain 1A7_H1.14_L1.71 (bispecific antibody) heavy: EVQLLESGGGLVQPGGSLRLSCAASGFTFSVYDMSWVRQAPGKRLEWVSTISSGGSFTHYPDSVKGRFTISRDNSKNTLYLQMNSLRAEDTAVYYCVRRSLDWYFDVWGAGTTVTVSSASTKGPSVFPLAPSSKSTSGGTAALGCLVKDYFPEPVTVSWNSGALTSGVHTFPAVLQSSGLYSLSSVVTVPSSSLGTQTYICNVNHKPSDTKVDKKVEPKSCDKTHTCPPCPAPPVAGPSVFLFPPKPKDTLMISRTPEVTCVVVDVKHEDPEVKFNWYVDGVEVHNAKTKPREEEYNSTYRVVSVLTVLHQDWLNGKEYKCKVSNKALPAPIEKTISKAKGQPREPQVYTLPPSREEMTKNQVSLTCDVSGFYPSDIAVEWESDGQPENNYKTTPPVLDSDGSFFLYSKLTVDKSRWEQGDVFSCSVMHEALHNHYTQKSLSLSPGK scFv-Fc: not shown light: EIVLTQSPGTLSLSPGERATLSCRVSSSIQSTNLHWYQQKPGQSPRPLIYGTSNLASGVPVRFSGSGSGTDYTLTISRLEPEDFAVYYCQQWSSYPLYTFGGGTKVEIKRTVAAPSVFIFPPSDEQLKSGTASVVCLLNNFYPREAKVQWKVDNALQSGNSQESVTEQDSKDSTYSLSSTLTLSKADYEKHKVYACEVTHQGLSSPVTKSFNRGEC
2 | – | 0.42 | αPDL1×αCD28 bsAb with PDL1 binding domain 2G4_H1.12_L1.14 and CD28 binding domain 1A7_H1.14_L1.71 (bispecific antibody, also called XENP40409 (non-Xtend analog of XENP40706)) heavy: EVQLLESGGGLVQPGGSLRLSCAASGFTFSVYDMSWVRQAPGKRLEWVSTISSGGSFTHYPDSVKGRFTISRDNSKNTLYLQMNSLRAEDTAVYYCVRRSLDWYFDVWGAGTTVTVSSASTKGPSVFPLAPSSKSTSGGTAALGCLVKDYFPEPVTVSWNSGALTSGVHTFPAVLQSSGLYSLSSVVTVPSSSLGTQTYICNVNHKPSDTKVDKKVEPKSCDKTHTCPPCPAPPVAGPSVFLFPPKPKDTLMISRTPEVTCVVVDVKHEDPEVKFNWYVDGVEVHNAKTKPREEEYNSTYRVVSVLTVLHQDWLNGKEYKCKVSNKALPAPIEKTISKAKGQPREPQVYTLPPSREEMTKNQVSLTCDVSGFYPSDIAVEWESDGQPENNYKTTPPVLDSDGSFFLYSKLTVDKSRWEQGDVFSCSVMHEALHNHYTQKSLSLSPGK scFv-Fc: not shown light: EIVLTQSPGTLSLSPGERATLSCRVSSSIQSSNLHWYQQKPGQSPRPLIYGTSNLASGVPVRFSGSGSGTDYTLTISRLEPEDFAVYYCQQWSSYPLYTFGGGTKVEIKRTVAAPSVFIFPPSDEQLKSGTASVVCLLNNFYPREAKVQWKVDNALQSGNSQESVTEQDSKDSTYSLSSTLTLSKADYEKHKVYACEVTHQGLSSPVTKSFNRGEC
3 | – | 0.17 | αPDL1×αCD28 bsAb with PDL1 binding domain 2G4_H1.12_L1.24 and CD28 binding domain 1A7_H1.14_L1.71 (bispecific antibody, also called XENP38512; XENP40036) heavy: EVQLLESGGGLVQPGGSLRLSCAASGFTFSVYDMSWVRQAPGKRLEWVSTISSGGSFTHYPDSVKGRFTISRDNSKNTLYLQMNSLRAEDTAVYYCVRRSLDWYFDVWGAGTTVTVSSASTKGPSVFPLAPSSKSTSGGTAALGCLVKDYFPEPVTVSWNSGALTSGVHTFPAVLQSSGLYSLSSVVTVPSSSLGTQTYICNVNHKPSDTKVDKKVEPKSCDKTHTCPPCPAPPVAGPSVFLFPPKPKDTLMISRTPEVTCVVVDVKHEDPEVKFNWYVDGVEVHNAKTKPREEEYNSTYRVVSVLTVLHQDWLNGKEYKCKVSNKALPAPIEKTISKAKGQPREPQVYTLPPSREEMTKNQVSLTCDVSGFYPSDIAVEWESDGQPENNYKTTPPVLDSDGSFFLYSKLTVDKSRWEQGDVFSCSVMHEALHNHYTQKSLSLSPGK scFv-Fc: not shown light: EIVLTQSPGTLSLSPGERATLSCRVSSSIQSTNLHWYQQKPGQSPRPLIYGTSVLATGVPVRFSGSGSGTDYTLTISRLEPEDFAVYYCQQWSSYPLYTFGGGTKVEIKRTVAAPSVFIFPPSDEQLKSGTASVVCLLNNFYPREAKVQWKVDNALQSGNSQESVTEQDSKDSTYSLSSTLTLSKADYEKHKVYACEVTHQGLSSPVTKSFNRGEC
4 | 96 | – | XENP37560 (bispecific antibody, 1+1 Fab-scFv-Fc format; also called αPDL1×αCD28 bsAb; 1A7_H1.1_L1.71) heavy: EVQLLESGGGLVQPGGSLRLSCAASGFTFSSYDMSWVRQAPGKRLEWVSTISSGGSFTHYPDSVKGRFTISRDNSKNTLYLQMNSLRAEDTAVYYCVRRSGDWYFDVWGAGTTVTVSSASTKGPSVFPLAPSSKSTSGGTAALGCLVKDYFPEPVTVSWNSGALTSGVHTFPAVLQSSGLYSLSSVVTVPSSSLGTQTYICNVNHKPSDTKVDKKVEPKSCDKTHTCPPCPAPPVAGPSVFLFPPKPKDTLMISRTPEVTCVVVDVKHEDPEVKFNWYVDGVEVHNAKTKPREEEYNSTYRVVSVLTVLHQDWLNGKEYKCKVSNKALPAPIEKTISKAKGQPREPQVYTLPPSREEMTKNQVSLTCDVSGFYPSDIAVEWESDGQPENNYKTTPPVLDSDGSFFLYSKLTVDKSRWEQGDVFSCSVMHEALHNHYTQKSLSLSPGK scFv-Fc: not shown light: EIVLTQSPGTLSLSPGERATLSCRVSSSISSSNLHWYQQKPGQSPRPLIYGTSNLASGVPVRFSGSGSGTDYTLTISRLEPEDFAVYYCQQWSSYPLYTFGGGTKVEIKRTVAAPSVFIFPPSDEQLKSGTASVVCLLNNFYPREAKVQWKVDNALQSGNSQESVTEQDSKDSTYSLSSTLTLSKADYEKHKVYACEVTHQGLSSPVTKSFNRGEC

Further lines, the binder ahead of its results:

Row | Binder | Kd (human CD28) [nM] | Kd (human PDL1 antigen) [nM]
5 | XENP37561 (bispecific antibody, 1+1 Fab-scFv-Fc format; scFv in VL-linker-VH orientation; also called αPDL1×αCD28 bsAb; 1A7_L1.71_H1.14) heavy: EVQLLESGGGLVQPGGSLRLSCAASGFTFSSYDMSWVRQAPGKRLEWVSTISSGGSFTHYPDSVKGRFTISRDNSKNTLYLQMNSLRAEDTAVYYCVRRSGDWYFDVWGAGTTVTVSSASTKGPSVFPLAPSSKSTSGGTAALGCLVKDYFPEPVTVSWNSGALTSGVHTFPAVLQSSGLYSLSSVVTVPSSSLGTQTYICNVNHKPSDTKVDKKVEPKSCDKTHTCPPCPAPPVAGPSVFLFPPKPKDTLMISRTPEVTCVVVDVKHEDPEVKFNWYVDGVEVHNAKTKPREEEYNSTYRVVSVLTVLHQDWLNGKEYKCKVSNKALPAPIEKTISKAKGQPREPQVYTLPPSREEMTKNQVSLTCDVSGFYPSDIAVEWESDGQPENNYKTTPPVLDSDGSFFLYSKLTVDKSRWEQGDVFSCSVMHEALHNHYTQKSLSLSPGK scFv-Fc: not shown light: EIVLTQSPGTLSLSPGERATLSCRVSSSISSSNLHWYQQKPGQSPRPLIYGTSNLASGVPVRFSGSGSGTDYTLTISRLEPEDFAVYYCQQWSSYPLYTFGGGTKVEIKRTVAAPSVFIFPPSDEQLKSGTASVVCLLNNFYPREAKVQWKVDNALQSGNSQESVTEQDSKDSTYSLSSTLTLSKADYEKHKVYACEVTHQGLSSPVTKSFNRGEC | 37 | –
6 | αPDL1×αCD28 bsAb with PDL1 binding domain 2G4_H1.12_L1.66 and CD28 binding domain 1A7_H1.14_L1.71 (bispecific antibody) heavy: EVQLLESGGGLVQPGGSLRLSCAASGFTFSVYDMSWVRQAPGKRLEWVSTISSGGSFTHYPDSVKGRFTISRDNSKNTLYLQMNSLRAEDTAVYYCVRRSLDWYFDVWGAGTTVTVSSASTKGPSVFPLAPSSKSTSGGTAALGCLVKDYFPEPVTVSWNSGALTSGVHTFPAVLQSSGLYSLSSVVTVPSSSLGTQTYICNVNHKPSDTKVDKKVEPKSCDKTHTCPPCPAPPVAGPSVFLFPPKPKDTLMISRTPEVTCVVVDVKHEDPEVKFNWYVDGVEVHNAKTKPREEEYNSTYRVVSVLTVLHQDWLNGKEYKCKVSNKALPAPIEKTISKAKGQPREPQVYTLPPSREEMTKNQVSLTCDVSGFYPSDIAVEWESDGQPENNYKTTPPVLDSDGSFFLYSKLTVDKSRWEQGDVFSCSVMHEALHNHYTQKSLSLSPGK scFv-Fc: not shown light: EIVLTQSPGTLSLSPGERATLSCRVSSSIQSTNLHWYQQKPGQSPRPLIYGTSNLATGVPVRFSGSGSGTDYTLTISRLEPEDFAVYYCQQWSSYPLYTFGGGTKVEIKRTVAAPSVFIFPPSDEQLKSGTASVVCLLNNFYPREAKVQWKVDNALQSGNSQESVTEQDSKDSTYSLSSTLTLSKADYEKHKVYACEVTHQGLSSPVTKSFNRGEC | – | 0.86
7 | XENP37559 (bispecific antibody, 1+1 Fab-scFv-Fc format; also called αPDL1×αCD28 bsAb; 1A7_H1_L1.71) heavy: EVQLLESGGGLVQPGGSLRLSCAASGFTFSSYDMSWVRQAPGKRLEWVSTISSGGSFTHYPDSVKGRFTISRDNSKNTLYLQMNSLRAEDTAVYYCVRRSGDWYFDVWGAGTTVTVSSASTKGPSVFPLAPSSKSTSGGTAALGCLVKDYFPEPVTVSWNSGALTSGVHTFPAVLQSSGLYSLSSVVTVPSSSLGTQTYICNVNHKPSDTKVDKKVEPKSCDKTHTCPPCPAPPVAGPSVFLFPPKPKDTLMISRTPEVTCVVVDVKHEDPEVKFNWYVDGVEVHNAKTKPREEEYNSTYRVVSVLTVLHQDWLNGKEYKCKVSNKALPAPIEKTISKAKGQPREPQVYTLPPSREEMTKNQVSLTCDVSGFYPSDIAVEWESDGQPENNYKTTPPVLDSDGSFFLYSKLTVDKSRWEQGDVFSCSVMHEALHNHYTQKSLSLSPGK scFv-Fc: not shown light: EIVLTQSPGTLSLSPGERATLSCRVSSSISSSNLHWYQQKPGQSPRPLIYGTSNLASGVPVRFSGSGSGTDYTLTISRLEPEDFAVYYCQQWSSYPLYTFGGGTKVEIKRTVAAPSVFIFPPSDEQLKSGTASVVCLLNNFYPREAKVQWKVDNALQSGNSQESVTEQDSKDSTYSLSSTLTLSKADYEKHKVYACEVTHQGLSSPVTKSFNRGEC | 180 | –
8 | XENP37412 (bispecific antibody, 1+1 Fab-scFv-Fc format; scFv in VL-linker-VH orientation; also called αPDL1×αCD28 bsAb; 1A7_L1_H1.14) heavy: EVQLLESGGGLVQPGGSLRLSCAASGFTFSSYDMSWVRQAPGKRLEWVSTISSGGSFTHYPDSVKGRFTISRDNSKNTLYLQMNSLRAEDTAVYYCVRRSGDWYFDVWGAGTTVTVSSASTKGPSVFPLAPSSKSTSGGTAALGCLVKDYFPEPVTVSWNSGALTSGVHTFPAVLQSSGLYSLSSVVTVPSSSLGTQTYICNVNHKPSDTKVDKKVEPKSCDKTHTCPPCPAPPVAGPSVFLFPPKPKDTLMISRTPEVTCVVVDVKHEDPEVKFNWYVDGVEVHNAKTKPREEEYNSTYRVVSVLTVLHQDWLNGKEYKCKVSNKALPAPIEKTISKAKGQPREPQVYTLPPSREEMTKNQVSLTCDVSGFYPSDIAVEWESDGQPENNYKTTPPVLDSDGSFFLYSKLTVDKSRWEQGDVFSCSVMHEALHNHYTQKSLSLSPGK scFv-Fc: not shown light: EIVLTQSPGTLSLSPGERATLSCRVSSSISSSNLHWYQQKPGQSPRPLIYGTSNLASGVPVRFSGSGSGTDYTLTISRLEPEDFAVYYCQQWSSYPLYTFGGGTKVEIKRTVAAPSVFIFPPSDEQLKSGTASVVCLLNNFYPREAKVQWKVDNALQSGNSQESVTEQDSKDSTYSLSSTLTLSKADYEKHKVYACEVTHQGLSSPVTKSFNRGEC | 286 | –
9 | XENP36233 (bispecific antibody, 1+1 Fab-scFv-Fc format, heterodimeric IgG1 Fc with FcγR ablation variants; also called αPDL1×αCD28 bsAb; 2G4 H1L1 Fab × 1A7_H1.14_L1 scFv) heavy: EVQLLESGGGLVQPGGSLRLSCAASGFTFSSYDMSWVRQAPGKRLEWVSTISSGGSFTHYPDSVKGRFTISRDNSKNTLYLQMNSLRAEDTAVYYCVRRSGDWYFDVWGAGTTVTVSSASTKGPSVFPLAPSSKSTSGGTAALGCLVKDYFPEPVTVSWNSGALTSGVHTFPAVLQSSGLYSLSSVVTVPSSSLGTQTYICNVNHKPSDTKVDKKVEPKSCDKTHTCPPCPAPPVAGPSVFLFPPKPKDTLMISRTPEVTCVVVDVKHEDPEVKFNWYVDGVEVHNAKTKPREEEYNSTYRVVSVLTVLHQDWLNGKEYKCKVSNKALPAPIEKTISKAKGQPREPQVYTLPPSREEMTKNQVSLTCDVSGFYPSDIAVEWESDGQPENNYKTTPPVLDSDGSFFLYSKLTVDKSRWEQGDVFSCSVMHEALHNHYTQKSLSLSPGK scFv-Fc: not shown light: EIVLTQSPGTLSLSPGERATLSCRVSSSISSSNLHWYQQKPGQSPRPLIYGTSNLASGVPVRFSGSGSGTDYTLTISRLEPEDFAVYYCQQWSSYPLYTFGGGTKVEIKRTVAAPSVFIFPPSDEQLKSGTASVVCLLNNFYPREAKVQWKVDNALQSGNSQESVTEQDSKDSTYSLSSTLTLSKADYEKHKVYACEVTHQGLSSPVTKSFNRGEC | 240 | –
